Consider one molecule from patent publication US20260116951A1 (DUCENTIS BIOTHERAPEUTICS, published 2026).

For orientation: EC50 means the concentration giving half of the maximal effect. For orientation: t½ means the time needed for the level to fall by half in the phase considered. Usually Kd stands for the concentration at which binding is half-saturated. The term koff denotes a measure of how fast the partners let go of each other. As a reminder, the kon is the second-order rate constant of association.

Assay [1] has as its target T1, Mouse CD200R protein (Creative Biomart CD200R1-3280M) (mouse, UniProt Q9ES57 26-238).
T1 construct: also called Murine CD200R1; murine CD200R
T1 sequence (looked up): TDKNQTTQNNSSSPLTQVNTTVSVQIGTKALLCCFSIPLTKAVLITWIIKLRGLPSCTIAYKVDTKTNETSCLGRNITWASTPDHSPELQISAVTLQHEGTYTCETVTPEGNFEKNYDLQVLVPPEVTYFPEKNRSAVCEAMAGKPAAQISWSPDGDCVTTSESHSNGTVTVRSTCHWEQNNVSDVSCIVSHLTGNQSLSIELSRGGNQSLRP
In words: SPR (BIAcore).

For another assay, the target named is T2, Human CD200R1L (human, UniProt Q6Q8B3 24-239, limits assumed).
T2 construct: nothing is said of the reagent
T2 sequence (looked up): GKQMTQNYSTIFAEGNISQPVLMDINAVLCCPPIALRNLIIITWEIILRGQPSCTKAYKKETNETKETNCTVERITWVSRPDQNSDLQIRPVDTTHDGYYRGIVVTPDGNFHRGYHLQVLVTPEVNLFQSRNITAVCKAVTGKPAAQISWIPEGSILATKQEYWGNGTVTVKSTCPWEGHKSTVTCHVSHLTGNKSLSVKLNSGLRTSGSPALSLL
Description: SPR (BIAcore).

The next assay has as its target T3, Cyno PBMCs.
T3 construct: No receptor was assigned; also called cynomolgus monkey PBMCs, gated on live cells
In words: Flow cytometry, % binding on cynomolgus PBMCs gated on live cells, 1 hour at 37 C, anti-human secondary antibody; the target protein on the cells is not named. As for the experimental part: PBMC cells were re-suspended with a density of 0.1 million cells per assay point, with 50 μL FACS buffer (1×PBS+2% FBS). Dilutions of huCD200-Fc in 50 μL were added, starting at 10 μg/mL with 3-fold dilutions up to 10 concentrations with FACS buffer, and incubated for 1-hour at 37° C. At the end of each time point, cells were collected and washed (addition of 200 μL FACS buffer and centrifugation at 1400 RPM). 10 μg/mL of anti-human secondary antibody (Abcam Ab98596) was added together with excess Fc block (Innovex Biosciences no. NB309), and incubated for 30 minutes at 4° C. Cells were washed post incubation and stained to check viability (1 μL dye per million cells per mL 1×PBS, ThermoFisher C34557A) for 20 minutes at 4° C. Cells were washed and fixed with Fixation buffer (100 μL per test, BD Sciences 554655) at 4° C. for 20 minutes. Post incubation, cells were washed and the pellet was re-suspended in FACS buffer (100 μL per test) for data acquisition on the flow cytometer.
(In general: In flow cytometry, cells or beads pass a laser one at a time.)

Assay [2] has as its target T4, Recombinant Human CD200R, His-tagged (Creative Biomart CD200R1-320H) (human, UniProt Q8TD46 27-266).
T4 construct: Bought; also called human CD200 receptor; not shown: His tag
T4 sequence (looked up): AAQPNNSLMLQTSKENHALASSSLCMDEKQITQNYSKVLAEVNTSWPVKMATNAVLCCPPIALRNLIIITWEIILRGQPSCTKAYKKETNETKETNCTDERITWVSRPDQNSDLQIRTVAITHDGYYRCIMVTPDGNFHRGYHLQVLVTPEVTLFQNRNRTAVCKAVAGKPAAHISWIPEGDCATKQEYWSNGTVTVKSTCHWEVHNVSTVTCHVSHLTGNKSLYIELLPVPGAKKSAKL
In words: SPR (BIAcore T200), CD200-Fc captured on anti-human Fc, CD200R flowed, 25 C, 1:1 fit. How it is done: (§1) The experiments were performed on a GE Healthcare BIAcore T200. Human, cynomolgus and mouse CD200R proteins were purchased from Creative Biomart (CD200R1-320H, CD200R1-3483C, CD200R1-3280M). All measurements were performed in duplicate.
For human CD200 constructs: anti-human Fc (GE Healthcare) was covalently immobilized on a BIAcore CM5 sensor chip (Cytiva, BR100530) by amine coupling using a Cytiva kit (BR100839) following the manufacturer's instructions, targeting immobilization of 8,000-11,000 RU. CD200-Fc proteins were diluted to 0.5 μg/mL to 4 μg/mL in running Buffer (1×HBS-EP+pH7.4 (Cytiva BR100669), HEPES Buffered Saline pH 7.4 containing 3 mM EDTA and 0.05% v/v Surfactant P20) and flowed for 25 to 100 seconds at 10 μL/min over the immobilized Anti-Human IgG Fc, with a stabilization time of 60 seconds. […]
For mouse CD200 constructs, muCD200R-Fc (Creative Biomart CD200R1-458M) diluted to 1 μg/mL in running buffer was flowed over the immobilized Anti-Human IgG Fc, with CD200 monomers serially diluted and flowed over captured CD200R. […] Data analysis: experimental sensorgrams were analyzed in BIAevaluation software (GE Healthcare). […] Closeness of fit was determined by algorithms provided by the manufacturer in the BIAevaluation software, and data accepted if the Chi² value was less than 10% of Rₘₐₓ, and the U value was less than or equal to 15.
Background: In SPR one partner is held on a chip, and binding of the other changes the refractive index at the surface.

Assay [3] concerns the target T4, Recombinant Human CD200R, His-tagged …. In words: SPR (BIAcore T200), CD200-Fc captured on anti-human Fc, CD200R flowed, 25 C, 1:1 fit, mean of two runs. How it is done: as §1
(§2) For human CD200 constructs: anti-human Fc (GE Healthcare) was covalently immobilized on a BIAcore CM5 sensor chip (Cytiva, BR100530) by amine coupling using a Cytiva kit (BR100839) following the manufacturer's instructions, targeting immobilization of 8,000-11,000 RU. CD200-Fc proteins were diluted to 0.5 μg/mL to 4 μg/mL in running Buffer (1×HBS-EP+pH7.4 (Cytiva BR100669), HEPES Buffered Saline pH 7.4 containing 3 mM EDTA and 0.05% v/v Surfactant P20) and flowed for 25 to 100 seconds at 10 μL/min over the immobilized Anti-Human IgG Fc, with a stabilization time of 60 seconds. Between 35 and 250 RUs of CD200-Fc were captured, with higher RUs used for cynomolgus CD200R binding experiments. […] Analysis temperature was 25° C. This was followed by regeneration of the surface with 30-90 second pulse of 3M MgCl₂ flowed at […] flow rate followed by stabilization of the surface with 60 second flow of running buffer.
For mouse CD200 constructs, muCD200R-Fc (Creative Biomart CD200R1-458M) diluted to 1 μg/mL in running buffer was flowed over the immobilized Anti-Human IgG Fc, with CD200 monomers serially diluted and flowed over captured CD200R. Other details were as above. Data analysis: experimental sensorgrams were analyzed in BIAevaluation software (GE Healthcare). The curves obtained were fitted to 1:1 Langmuir binding model by setting Rmax and RI as local parameters. Rate equations using standard parameters (e.g. ligand concentration, time) were used for iterative curve fitting. Closeness of fit was determined by algorithms provided by the manufacturer in the BIAevaluation software, and data accepted if the Chi² value was less than 10% of Rₘₐₓ, and the U value was less than or equal to 15.

The target in assay [4] is T5, Recombinant Cyno CD200R, His-tagged (Creative Biomart CD200R1-3483C) (cynomolgus monkey).
T5 construct: Bought; also called cynomolgus CD200R1; cynomolgus CD200R
Description: SPR, cyno CD200R1 flowed over immobilized CD200-Fc, 25 C, 1:1 fit. How it is done:
as §2
Curves obtained were fitted to 1:1 Langmuir binding model by setting Rmax and RI as local parameters. Rate equations using standard parameters (e.g. ligand concentration, time) were used for iterative curve fitting. […] Means of 2 experiments carried out on the same day are shown with standard deviation. Residue numbering for CD200 proteins refers to the pre-protein, containing a signal peptide which is cleaved during insertion into the endoplasmic reticulum.

B1: DS-118 (mutated human CD200-Fc fusion protein, K130Y, I131Y, IgG4 S228P Fc) (Fc fusion)
chain: QVQVVTQDEREQLYTPASLKCSLQNAQEALIVTWQKKKAVSPENMVTFSENHGVVIQPAYKDKINITQLGLQNSTITFWNITLEDEGCYMCLFNTFGFGYYSGTACLTVYVQPIVSLHYKFSEDHLNITCSATARPAPMVFWKVPRSGIENSTVTLSHPNGTTSVTSILHIKDPKNQVGKEVICQVLHLGTVTDFKQTVNKGPPCPPCPAPEFLGGPSVFLFPPKPKDTLMISRTPEVTCVVVDVSQEDPEVQFNWYVDGVEVHNAKTKPREEQFNSTYRVVSVLTVLHQDWLNGKEYKCKVSNKGLPSSIEKTISKAKGQPREPQVYTLPPSQEEMTKNQVSLTCLVKGFYPSDIAVEWESNGQPENNYKTTPPVLDSDGSFFLYSRLTVDKSRWQEGNVFSCSVMHEALHNHYTQKSLSLSLGK
notes: also called mutated CD200-Fc; mutant CD200-Fc
In the case of B1, the binding result in assay [1] was “no binding”. Moreover, the binding result with Human CD200R1L was “no binding”. This molecule registered a half-maximal effective concentration (EC50) in the assay with Cyno PBMCs of 1.96 µg/mL. Also, the t½ in assay [2] was 2270 s. In assay [3], the Kd is 1.3 nM, the koff amounted to 0.000304 s⁻¹ and the kon turned out to be 231000 M⁻¹ s⁻¹. Also, the T1/2 in assay [4] worked out at 18.2 s.
